Experimental data published in US20180222992A1 (Hoffmann-La Roche, published 2018).

B1: Antibody 0012 (bispecific antibody, human IgG1, kappa)
chain 1: DIVLTQSPATLSLSPGERATLSCRASQSVSSSYLAWYQQKPGQAPRLLIYGASSRATGVPARFSGSGSGTDFTLTISSLEPEDFATYYCLQIYNMPITFGQGTKVEIKRTVAAPSVFIFPPSDRKLKSGTASVVCLLNNFYPREAKVQWKVDNALQSGNSQESVTEQDSKDSTYSLSSTLTLSKADYEKHKVYACEVTHQGLSSPVTKSFNRGEC
chain 2: not shown
chain 3: QSMQESGPGLVKPSQTLSLTCTVSGFSLSSYAMSWIRQHPGKGLEWIGYIWSGGSTDYASWAKSRVTISKTSTTVSLKLSSVTAADTAVYYCARRYGTSYPDYGDASGFDPWGQGTLVTVSSASVAAPSVFIFPPSDEQLKSGTASVVCLLNNFYPREAKVQWKVDNALQSGNSQESVTEQDSKDSTYSLSSTLTLSKADYEKHKVYACEVTHQGLSSPVTKSFNRGEC
chain 4: not shown
notes: knob-into-hole; The anti-A-beta light chain occurs twice
B2: Antibody 0020 (bispecific antibody, human IgG1, kappa)
chain 1: B1 chain 1
chain 2: not shown
chain 3: not shown
B3: Antibody 0015 (bispecific antibody)
light 1: B1 chain 1
heavy 1: not shown
light 2: AIQLTQSPSSLSASVGDRVTITCRASQSISSYLAWYQQKPGKAPKLLIYRASTLASGVPSRFSGSGSGTDFTLTISSLQPEDFATYYCQQNYASSNVDNTFGGGTKVEIKSSASTKGPSVFPLAPSSKSTSGGTAALGCLVKDYFPEPVTVSWNSGALTSGVHTFPAVLQSSGLYSLSSVVTVPSSSLGTQTYICNVNHKPSNTKVDKKVEPKSC
heavy 2: not shown
notes: knob-into-hole
B4: Antibody 0024 (bispecific antibody, human IgG1, kappa)
chain 1: not shown
chain 2: not shown
chain 3: B3 light 2
chain 4: not shown
notes: as for B1

Experiments:
A-beta = A-beta (human); assay: cell-based or functional assay
A-beta peptide (1-40) [1] = molecular target: T1, A-beta peptide (1-40) (human); assay: BIAcore; after 14 days, pH 7.4, 37° C., PBS buffer, relative to untreated control
T1 construct: also called Aβ(1-40); Aβ40
Description: (§1) After incubation ended, samples were analyzed for relative active concentration (BIAcore), aggregation (SEC) and fragmentation (capillary electrophoresis or SDS-PAGE) and compared with the untreated control.

[2] = molecular target: T2, human transferrin receptor (human, UniProt P02786 89-760); assay: as above
T2 construct: also called human TfR; Recombinant His6-tagged human transferrin receptor (R&D systems, cat. no 2474-TR-050)
Description: as §1

A-beta peptide (1-40) [3] = molecular target: T1, A-beta peptide (1-40); assay: BIAcore; after 14 days, pH 6.0, 40° C., His/NaCl buffer, relative to untreated control
Description: as §1

[4] = molecular target: T2, human transferrin receptor; assay: as above
Description: as §1

T2 sequence (P02786 89-760 limits assumed): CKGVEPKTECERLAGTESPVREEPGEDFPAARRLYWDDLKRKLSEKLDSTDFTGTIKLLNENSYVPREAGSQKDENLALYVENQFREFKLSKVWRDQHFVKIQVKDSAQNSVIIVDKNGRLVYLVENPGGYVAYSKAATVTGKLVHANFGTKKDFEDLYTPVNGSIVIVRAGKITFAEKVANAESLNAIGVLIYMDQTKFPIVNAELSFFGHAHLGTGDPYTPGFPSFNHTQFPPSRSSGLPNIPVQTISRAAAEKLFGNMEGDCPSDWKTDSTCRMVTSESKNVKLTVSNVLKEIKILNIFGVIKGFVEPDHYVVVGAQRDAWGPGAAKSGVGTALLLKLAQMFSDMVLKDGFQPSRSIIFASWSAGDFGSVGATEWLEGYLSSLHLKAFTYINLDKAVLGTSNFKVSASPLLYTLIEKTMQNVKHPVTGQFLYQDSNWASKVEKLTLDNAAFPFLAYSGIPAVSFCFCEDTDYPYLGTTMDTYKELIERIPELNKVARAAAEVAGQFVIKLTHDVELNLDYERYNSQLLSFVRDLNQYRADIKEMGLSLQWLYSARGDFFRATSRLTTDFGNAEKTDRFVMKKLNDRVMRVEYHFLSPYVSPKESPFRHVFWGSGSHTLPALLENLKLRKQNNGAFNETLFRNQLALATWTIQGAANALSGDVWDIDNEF

Binder | IL-8 [ng/ml], U937-cell assay (A-beta) [ng/mL] | IP-10 [ng/ml], U937-cell assay (A-beta) [ng/mL] | relative A-beta peptide (1-40) binding by BIAcore (A-beta peptide (1-40) [1]) [%] | relative human transferrin receptor binding by BIAcore [2] [%] | relative A-beta peptide (1-40) binding by BIAcore (A-beta peptide (1-40) [3]) [%] | relative human transferrin receptor binding by BIAcore [4] [%]
B1 | 7 | 5.3 | 82 | 78 | 87 | 101
B2 | 7 | 4.5 | – | – | – | –
B3 | – | 5 | 86 | 85 | 96 | 91
B4 | 8 | 5.2 | 101 | 90 | 97 | 93
